According to paper PMC5656594, “Probing Resistance Mutations in Retroviral Integrases by Direct Measurement of Dolutegravir Fluorescence”:

B1: Fl-DNA#13 (processed LTR end) (dsDNA)
DNA 1: TATACAAAATTCCATGACA
DNA 2: ATTGTCATGGAATTTTGTATA
B2: Fl-DNA#8 (dsDNA)
DNA 1: GGAATCTAGCGGCGCATCAAT
DNA 2: ATTGATGCGCCGCTAGATTCC
B3: Fl-DNA#9 (dsDNA)
DNA 1: GGAATCTAGCGGCGCATAGGT
DNA 2: ACCTATGCGCCGCTAGATTCC
B4: Fl-PFVCAAT (Fl-DNA#1) (dsDNA)
DNA 1: TATACAAAATTCCATGACAAT
DNA 2: ATTGTCATGGAATTTTGTATA

Molecular target: PFV integrase wt (INPFV) (prototype foamy virus, UniProt P14350 752-1143)
Assay: fluorescence anisotropy; 1 mM Mg2+; stoichiometric IN + DNA; 20 mM Tris pH 7.2, 50 mM NaCl, 1 mM DTT, 10% DMSO, 1 mM (or 10 mM) Mg2+, 25 °C
Details: protein: recombinant, tags: His-tag, chain copies: 4

Row | Binder | binding result (label: fluorescein, blunt) | also measured
1 | B1 | – | binding result (label: fluorescein, 5' overhang 2 nt on non-transferred strand): binds
2 | B2 | binds | –
3 | B3 | binds | –
4 | B4 | – | binding result (label: 5'-fluorescein on reactive strand, blunt): binds
